Reference: patent US20260070984A1 (Boehringer Ingelheim, published 2026)
Where two headings read alike, the source gives them in different places.

B1: PD1AB-6-4P (antibody, V domains shown)
VH: EVQLVQSGAEVKKPGATVKISCKASGFNIKDTYMHWVQQAPGKGLEWMGRIDPANGDRKYDPKFQGRVTITADTSTDTAYMELSSLRSEDTAVYYCARSGPVYYYGSSYVMDYWGQGTTVTVSS
VL: DIVMTQSPDSLAVSLGERATINCKSGQSVLYSSNQKNFLAWYQQKPGQPPKLLIYWASTRESGVPDRFSGSGSGTDFTLTISSLQAEDVAVYYCHQYLYSWTFGQGTKLEIK
B2: Antibody C (antibody, human IgG4 S228P, kappa, V domains shown)
VH: EVQLVESGGGLVQPGGSLRLSCAASGFTFSDYYMSWVRQAPGKGLEWVAYISSGGGSSYYPDAVKGRFTISRDNAKQSLYLQMQSLRAEDTAVYYCARLPHYFAMDYWGQGTLVTVSS
VL: DIQMTQSPSSLSASVGDRVTITCQASQSISSDYLHWYQQKPGKAPKLLIYRTSNLETGVPSRFSGSGSGTDFTFTISSLQPEDIATYYCQQGTSLPRAFGQGTKLEIKR
notes: Humanized 723C2, human IgG4Pro/kappa; also called Ab C; 723C2-IgG4Pro-461-47 with IgK-462-07

Assays:
[1] = target: T1, cynomologous PD-1 (cynomolgus monkey, UniProt B0LAJ3 25-170); assay: SPR, ProteOn XPR36
T1 construct: Used in SPR; also called cynomolgus PD-1; recombinant cynomologus PD-1
T1 sequence (B0LAJ3 entry or part of it limits assumed): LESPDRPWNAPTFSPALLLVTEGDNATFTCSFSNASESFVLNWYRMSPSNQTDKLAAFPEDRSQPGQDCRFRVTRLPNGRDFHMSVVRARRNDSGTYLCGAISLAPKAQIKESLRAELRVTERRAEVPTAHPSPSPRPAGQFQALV

[2] = target: T2, human PD-1 expressed on cells (human, UniProt Q15116 25-288); assay: cell-based or functional assay
T2 sequence (Q15116 25-288): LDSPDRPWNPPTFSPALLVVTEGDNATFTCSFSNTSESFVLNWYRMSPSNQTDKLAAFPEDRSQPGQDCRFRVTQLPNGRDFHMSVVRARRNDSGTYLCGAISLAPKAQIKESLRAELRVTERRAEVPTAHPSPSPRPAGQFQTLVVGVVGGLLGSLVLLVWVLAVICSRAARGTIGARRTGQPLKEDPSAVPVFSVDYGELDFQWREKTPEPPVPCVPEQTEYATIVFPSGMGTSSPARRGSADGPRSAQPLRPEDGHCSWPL

[3] = target: T2, human PD-1 expressed on cells; assay: cell-based or functional assay; remark: listed apart in the source
[4] = target: T2, human PD-1 expressed on cells; assay: cell-based or functional assay; remark: listed apart in the source
[5] = target: T2, human PD-1 expressed on cells; assay: cell-based or functional assay; remark: listed apart in the source
[6] = target: T2, human PD-1 expressed on cells; assay: cell-based or functional assay; remark: listed apart in the source
[7] = target: T3, recombinant human PD-1 (human, UniProt Q15116 25-167, limits assumed); assay: SPR, ProteOn XPR36, 1:1 binding model
T3 construct: Soluble recombinant protein used in SPR; also called PDCD1; purified recombinant human PD-1
T3 sequence (Q15116 25-167 limits assumed): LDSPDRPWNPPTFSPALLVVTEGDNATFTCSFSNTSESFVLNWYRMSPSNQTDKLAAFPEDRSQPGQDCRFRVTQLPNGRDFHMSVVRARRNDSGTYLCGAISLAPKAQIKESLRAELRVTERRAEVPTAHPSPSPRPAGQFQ
Method: Antibody PD1AB-6-4P (antibody in IgG4Pro backbone disclosed in WO2017/058859 to Celgene) was also tested.

[8] = target: T1, cynomologous PD-1; assay: SPR, ProteOn XPR36, 1:1 binding model
Method: C) Affinity and kinetic data for the anti-PD-1 antibodies binding to cynomologous PD-1 were measured on the ProteOn™ XPR36 surface plasmon resonance optical biosensor, and globally fit to a 1:1 binding model (Table 11).

[9] = target: T2, human PD-1 expressed on cells; assay: flow cytometry, AlexaFluor 647 labeled antibody on Jurkat cells expressing human PD-1
Method: Selectivity of anti-PD-1 antibody to human PD-1 protein in a cell-based assay was evaluated by flow cytometry. […] As a control, parental and PD-1 expressing Jurkat cells were incubated with anti-TNP isotype control antibodies. Following incubation, the cells were washed to remove non-bound antibody, fixed in PFA, and then washed in staining buffer. Binding of the antibody to the Jurkat cells was evaluated by flow cytometry. Unstained cells were also evaluated by flow cytometry as a negative control.

[10] = target: T2, human PD-1 expressed on cells; assay: CHO-PD1-PDL1 DELFIA Eu TRF assay: enhancement of biotin labeled PD-L1 binding to CHO cells expressing PD-1, antibody titrated
Method: 10,000 cells were plated and incubated overnight at 37° C.±5% CO2 incubator (humidified incubator). […] Plates were washed twice with 50 μl of 1× TRF Wash Buffer. 20 μL of Eu-Streptavidin reagent was added to the assay plate, and incubated at room temperature for one hour. Enhancement Solution was added and incubated for 30 minutes at RT.

Binder | Kd [1] [nM] | Emax Values (%), Average, inhibition of IFNγ [2] [%] | IC50 Values (pM), Geomean, inhibition of IFNγ [2] [pM] | Emax Values (%), Average, inhibition of IL-17A [3] [%] | IC50 Values (pM), Geomean, inhibition of IL-17A [3] [pM] | IC50 Values (pM), Geomean, inhibition of IL-21 [4] [pM] | IC50 Values (nM), Geomean, inhibition of IFNγ [5] [nM] | IC50 Values (nM), Geomean, inhibition of IFNγ [6] [nM] | Kd [7] [nM] | koff [7] [s⁻¹] | kon [7] [M⁻¹ s⁻¹] | Kd [8] [nM] | koff [8] [s⁻¹] | kon [8] [M⁻¹ s⁻¹] | EC50 (read off the curve) [9] [nM] | EC50 [10] [nM]
B1 | 25 | 40.1 | 31.5 | 67.5 | 176 | 50 |  |  |  |  |  |  |  |  |  | 
B2 |  | 46.8 | 17.7 | 62.9 | 32.5 | 6 | 0.03 | 0.03 | 2.65 | 0.000463 | 175000 | 41 | 0.00633 | 154000 | ~10 | 2.4
